Where a chain is given by its changes, count along the chain named.
B1: M13 phage pKK94 displaying MICA α3 domain with loop 3.3 in loop 1 (designed binder, not shown: large carriers)
chain: TVPPMVNVTRVPRGDSDLTVTCRASGFYPWNITLSWRQDGVSLSHDTQQWGDVLPDGNGTYQTWVATRICQGEEQRFTCYMEHSGNHSTHPVPSGK
B2: M13 phage pKK95 displaying MICA α3 domain with loop 3.4 in loop 1 (designed binder, not shown: large carriers)
chain: B1 chain with V11S, P12A, L18H, T19R
B3: M13 phage pKK96 displaying MICA α3 domain with loop 5.1 in loop 1 (designed binder, not shown: large carriers)
chain: B1 chain with R10V, V11T, P12R, R13G, G14D, D15T, S16F, D17T, L18Q, T19S
B4: M13 phage pKK97 displaying MICA α3 domain with loop 5.2 in loop 1 (designed binder, not shown: large carriers)
chain: TVPPMVNVTRGDTFTQSVTCRASGFYPWNITLSWRQDGVSLSHDTQQWGDVLPDGNGTYQTWVATRICQGEEQRFTCYMEHSGNHSTHPVPSGK
B5: M13 phage pKK98 displaying MICA α3 domain with loop 5.3 in loop 1 (designed binder, not shown: large carriers)
chain: B1 chain with R10H, V11L, P12A, S16D, D17L, L18T, T19Y
B6: M13 phage pKK100 displaying MICA α3 domain with extended loop 3.2sp in loop 1 (designed binder, not shown: large carriers)
chain: TVPPMVNVTSGGSGGGSTSRGDHPRTQSGGSGGGVTCRASGFYPWNITLSWRQDGVSLSHDTQQWGDVLPDGNGTYQTWVATRICQGEEQRFTCYMEHSGNHSTHPVPSGK
B7: M13 phage pKK101 displaying MICA α3 domain with extended loop 3.3sp in loop 1 (designed binder, not shown: large carriers)
chain: B6 chain with T18R, S19V, R20P, G21R, D22G, H23D, P24S, R25D, T26L, Q27T
B8: M13 phage pKK102 displaying MICA α3 domain with extended loop 5.1sp in loop 1 (designed binder, not shown: large carriers)
chain: B6 chain with T18V, S19T, H23T, P24F, R25T, T26Q, Q27S
B9: M13 phage pKK103 displaying MICA α3 domain with extended loop 5.3sp in loop 1 (designed binder, not shown: large carriers)
chain: B6 chain with T18H, S19L, R20A, G21R, D22G, H23D, P24D, R25L, Q27Y
B10: M13 phage pKK104 displaying MICA α3 domain with extended loop 3.2sp in loop 3 (designed binder, not shown: large carriers)
chain: TVPPMVNVTRSEASEGNITVTCRASGFYPWNITLSWRQDGVSLSHDTQQWGDVLPDGNGTYQTWVATRISGGSGGGSTSRGDHPRTQSGGSGGGCYMEHSGNHSTHPVPSGK
B11: M13 phage pKK105 displaying MICA α3 domain with extended loop 3.3sp in loop 3 (designed binder, not shown: large carriers)
chain: B10 chain with T78R, S79V, R80P, G81R, D82G, H83D, P84S, R85D, T86L, Q87T
B12: M13 phage pKK107 displaying MICA α3 domain with tight T-3.1 in loop 1 (designed binder, not shown: large carriers)
chain: TVPPMVNTSRGDHPRTQCRASGFYPWNITLSWRQDGVSLSHDTQQWGDVLPDGNGTYQTWVATRICQGEEQRFTCYMEHSGNHSTHPVPSGK
B13: M13 phage pKK109 displaying MICA α3 domain with tight T-3.3 in loop 1 (designed binder, not shown: large carriers)
chain: B12 chain with T8R, S9V, R10P, G11R, D12G, H13D, P14S, R15D, T16L, Q17T
B14: M13 phage pKK110 displaying MICA α3 domain with tight T-5.1 in loop 1 (designed binder, not shown: large carriers)
chain: B12 chain with T8V, S9T, H13T, P14F, R15T, T16Q, Q17S
B15: M13 phage pKK111 displaying MICA α3 domain with tight T-5.3 in loop 1 (designed binder, not shown: large carriers)
chain: B12 chain with T8H, S9L, R10A, G11R, D12G, H13D, P14D, R15L, Q17Y
B16: M13 phage pKK112 displaying MICA α3 domain with tight T-AMY (loop 1 from tendamistat) in loop 1 (designed binder, not shown: large carriers)
chain: TVPPMVNYQSWRYSQCRASGFYPWNITLSWRQDGVSLSHDTQQWGDVLPDGNGTYQTWVATRICQGEEQRFTCYMEHSGNHSTHPVPSGK

What follows are binders tested against T1, integrin αVβ3 (UniProt P06756 31-992; P05106 27-718) (assay: phage ELISA, integrin coated, anti-M13-HRP). Conditions: not given.
T1 construct: Coated on the ELISA plate
T1 sequence (P06756 31-992, chain 1 of 2): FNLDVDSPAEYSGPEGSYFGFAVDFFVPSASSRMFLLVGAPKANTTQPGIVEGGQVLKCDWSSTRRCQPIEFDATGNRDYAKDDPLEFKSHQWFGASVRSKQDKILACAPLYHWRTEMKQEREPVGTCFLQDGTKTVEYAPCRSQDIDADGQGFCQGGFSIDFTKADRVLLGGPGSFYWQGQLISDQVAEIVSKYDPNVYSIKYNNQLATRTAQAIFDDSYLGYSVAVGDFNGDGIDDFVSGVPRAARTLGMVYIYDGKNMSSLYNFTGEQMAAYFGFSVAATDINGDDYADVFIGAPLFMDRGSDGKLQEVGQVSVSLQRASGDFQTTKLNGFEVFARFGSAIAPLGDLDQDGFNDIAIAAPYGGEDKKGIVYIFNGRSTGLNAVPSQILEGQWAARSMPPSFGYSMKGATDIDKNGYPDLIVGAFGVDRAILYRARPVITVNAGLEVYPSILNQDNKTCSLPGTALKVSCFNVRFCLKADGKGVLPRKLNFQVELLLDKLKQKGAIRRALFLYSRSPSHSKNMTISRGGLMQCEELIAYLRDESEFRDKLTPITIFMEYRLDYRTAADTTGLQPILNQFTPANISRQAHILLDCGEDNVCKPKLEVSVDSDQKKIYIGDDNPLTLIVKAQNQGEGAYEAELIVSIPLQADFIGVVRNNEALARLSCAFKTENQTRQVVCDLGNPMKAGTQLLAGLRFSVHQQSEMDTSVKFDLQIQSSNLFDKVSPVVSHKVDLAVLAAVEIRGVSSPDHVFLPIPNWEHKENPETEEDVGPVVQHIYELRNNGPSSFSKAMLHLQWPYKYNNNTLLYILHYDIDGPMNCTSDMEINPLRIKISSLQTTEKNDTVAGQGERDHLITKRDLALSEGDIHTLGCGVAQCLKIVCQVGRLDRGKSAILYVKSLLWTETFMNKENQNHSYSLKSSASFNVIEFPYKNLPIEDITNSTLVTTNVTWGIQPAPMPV
T1 sequence (P05106 27-718, chain 2 of 2): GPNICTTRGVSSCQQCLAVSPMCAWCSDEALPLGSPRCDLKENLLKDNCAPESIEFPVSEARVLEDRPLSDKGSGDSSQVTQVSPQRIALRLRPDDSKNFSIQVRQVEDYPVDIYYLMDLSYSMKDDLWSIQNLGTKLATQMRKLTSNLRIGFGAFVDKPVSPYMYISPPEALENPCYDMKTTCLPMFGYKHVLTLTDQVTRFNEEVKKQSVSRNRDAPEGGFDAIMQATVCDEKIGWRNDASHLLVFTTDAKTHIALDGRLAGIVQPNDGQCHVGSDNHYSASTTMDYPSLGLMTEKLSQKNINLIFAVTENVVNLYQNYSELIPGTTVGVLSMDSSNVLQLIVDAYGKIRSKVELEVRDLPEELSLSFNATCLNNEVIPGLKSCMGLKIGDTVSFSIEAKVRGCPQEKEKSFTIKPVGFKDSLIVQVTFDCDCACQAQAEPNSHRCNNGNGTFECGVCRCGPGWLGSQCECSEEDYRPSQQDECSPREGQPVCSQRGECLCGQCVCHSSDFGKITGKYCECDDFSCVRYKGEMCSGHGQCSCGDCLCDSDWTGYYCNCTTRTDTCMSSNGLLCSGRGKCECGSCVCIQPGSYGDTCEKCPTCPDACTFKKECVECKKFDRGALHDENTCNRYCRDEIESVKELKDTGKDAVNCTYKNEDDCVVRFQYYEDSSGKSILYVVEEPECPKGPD
With B1 the signal was 1.07 OD. With B2 the signal was 0.345 OD. B3 gave a signal of 1.64 OD. B4 was tested, and the signal was 1.55 OD. With B5 the signal was 1.22 OD. B6 was tested, and the signal was 0.201 OD. For B7, the signal was 1.49 OD. Binder B8 has a signal of 1.02 OD. B9 was tested, and the signal was 0.688 OD. With B10 the signal was 0.791 OD. For B11, the signal was 1.33 OD. For B12, the signal was 0.999 OD. B13 showed a signal of 0.23 OD. Binder B14 has a signal of 1.49 OD. Binder B15 has a signal of 0.707 OD. In the case of B16, the signal is reported as 0.46 OD.

Same assay, conditions: record 2
With B8 the signal was 1.45 OD. B9 gave a signal of 0.587 OD.

What follows are binders tested against T2, integrin αVβ5 (UniProt P06756 31-992; P18084 24-719) (assay: phage ELISA, integrin coated, anti-M13-HRP). Conditions: not given.
T2 construct: Coated on the ELISA plate
T2 sequence (P06756 31-992, chain 1 of 2): as the sequence (P06756 31-992, chain 1 of 2) above
T2 sequence (P18084 24-719, chain 2 of 2): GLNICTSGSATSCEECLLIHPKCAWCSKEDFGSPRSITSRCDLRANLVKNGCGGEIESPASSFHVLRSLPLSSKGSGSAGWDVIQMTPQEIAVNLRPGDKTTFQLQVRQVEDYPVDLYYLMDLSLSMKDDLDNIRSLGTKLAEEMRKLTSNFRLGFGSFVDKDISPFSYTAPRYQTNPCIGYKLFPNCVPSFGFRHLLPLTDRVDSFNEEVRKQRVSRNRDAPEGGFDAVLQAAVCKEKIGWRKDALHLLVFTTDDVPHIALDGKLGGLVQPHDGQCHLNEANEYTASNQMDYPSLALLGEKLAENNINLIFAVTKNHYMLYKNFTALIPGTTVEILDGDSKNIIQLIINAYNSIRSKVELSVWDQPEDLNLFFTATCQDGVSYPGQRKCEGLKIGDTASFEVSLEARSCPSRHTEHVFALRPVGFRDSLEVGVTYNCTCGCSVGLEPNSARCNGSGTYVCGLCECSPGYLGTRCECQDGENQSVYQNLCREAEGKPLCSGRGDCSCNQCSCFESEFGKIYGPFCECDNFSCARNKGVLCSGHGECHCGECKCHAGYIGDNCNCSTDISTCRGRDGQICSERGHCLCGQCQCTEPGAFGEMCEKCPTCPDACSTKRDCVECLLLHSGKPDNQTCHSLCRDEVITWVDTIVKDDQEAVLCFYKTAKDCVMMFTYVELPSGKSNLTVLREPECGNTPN
B1 showed a signal of 2.84 OD. Work on B2 yielded a signal of 0.232 OD. For B3, the signal was 2.42 OD. B4 gave a signal of 2.59 OD. Work on B5 yielded a signal of 1.48 OD. Binder B6 has a signal of 0.186 OD. B7 was tested, and the signal was 1.23 OD. For B8, the signal was 0.771 OD. With B9 the signal was 0.491 OD. Work on B10 yielded a signal of 1.12 OD. B11 gave a signal of 1.11 OD. With B12 the signal was 1.49 OD. Binder B13 has a signal of 0.167 OD. B14 was tested, and the signal was 2.56 OD. For B15, the signal was 0.657 OD. In the case of B16, the signal is reported as 0.515 OD.

Same assay, conditions: record 2
Binder B8 has a signal of 1.5 OD. B9 gave a signal of 0.814 OD.
